The DeepSol protein solubility set

Assay: soluble on expression in E. coli; label from the status in PepcDB or PDB records

| Sequence | soluble on expression in E. coli |
| --- | --- |
| MAHHHHHHMSDDDDKIYIYSDLFSKNFSDDEKDDSYEREKQVYSGSETQNAENEYSKLRAQNSTILNNYFDNDNIKNVENLKSNDPDQIDLILFPVNKNYYMNLFDGQLIENIHSIKLRKAGFYAIYVENNNNSKWDGIYFGLSRMQVELDYKLITKKNKDGGEYEKRNTSSYDNTESVQNTVGSEKEETENKNEETSNYNSNLNNEINKICKYNLDQTDILLDDSNSERRRNSKFKIKNTNYYDNLMLQNKYTNSILYDDDDDKNNTETYTCTFKTEDQIRVPSQKKKYIYLYNKYDNATLDLNVHTYMSLGMSILCKYSLLYCGKYNHIPRDPYTPFKKPVSILSLDGGGILTISTLLVLNRLEAELRKEIGSDDIKLIDCFDMVCGTSAGGLISLALLREIDLQDVSNMWPSTIKKVFEGNRNIISGIFFEGYDVNNVKDVFLERMGNKFMSSYKKFYCFVTATDVKHKPYKLFLIRNYTHKYNSINAESYDGINKVPLWLAAWATASAPTYLKGPSAEDIKKLGINIKPEIHLVDGALKASNPALIALEECARLNNKNLSTFIKEDLDTLVSIGTGQVPTKLTQSGASSKSASTFEILINSTHLLTRANDTHREVLQRLADRENTYFRFNVPHIGDIEIDSQDVRDFDLISKATQDYLFDEKFYEIKRLAHKLANNYIRSKYL | not soluble |
| MSLFIDKQTVERHFSKSAHLYDGVNHVQRKMAHRLVQLLDEKRRDAKDEPRAILDIGCGTGWLTRECLKSFPQATIDAVDLSKQMLEVAEKNVSSHPNVQFIQGDIEKMVREKPSAKTYDVIVANAVFQWLDKPTETVAQLRSWLKPNGLLLFSTFGPDTFYELHDSFQLAAKQLGIIDERRGLDYLSKTEWKRTLDGLFAELTIHEEKAIESYATVEQFLHTVKKMGATYSQSSRPLSKRYYQLMKEIYEQRYRTEDSIPATYDCLYVLCQAEGHHHHHH | soluble |
| MIYIVGIGPGSRDYVTEKAFDTVETSDFVLGSKRSLEIFEINGERVELTVNLKNELYEFLKNYKNSDSKKKVSILSTGDPCFSGLLKTIFSFDFIEQDDFEVVPGI | not soluble |
| MLETDLEARMQILRESGFQESQGDDDTFAQRAEWFYQGRPLLLSLCLDLYNGYVTLLGRSSHQTRLKPTTSLPNQLLQDDDDCISDIDSVSEVSSEVESTLSFQQMKDPTAVSEKVDELVSQLVTASLDKEILKHELLHKDQQFHEASKTIELLKKFVMLLEMEKEVAVEENANLGYKLTSLLEENRELATEALFMKNEAVGLARCVLKMRDDHFHKVCILQNRIYSLQASRNSEPVSDKVSYGCFGLDKHKTKKKKENKTEEKKPGFKWLKKLNTINLFTKCSLNPSAAAPSCCTFDLPY | not soluble |
| GESSKSGYQTTGENNSSDYQGIIEDGEYKTSKSRGVGISQNSDNLLNLKSFEAGLTTISKDHFSTKSYIFQEGQYLNKATIQDWLGRKSSSNPEGLNPSDNGKKEANKRNPIYVQQIEEQDYMKQNNGKLELAGMTIGIGMNQKDYYQKEQYGATYSTTISKEKRIEEGKIAAKKVLARVRQKVGNNVPIVIAMFAQAPNDSLVGGYFYSYTVSKSGTDIGSWTETNIKSYVLPATEDNKLPNDNDSTSFDNFQKEVKNFFPNISNVTGQGQYKDKTLQGLHITITTQFYSETEITSFTQYVAQAAKSYLPSGIPVDIKINGSDGETQSFVSTTGGNGGYYTHVFGSY | soluble |
| MTRPLIVAAVIGSALAWHGSAQAQHSQAVAPAEPCTPVVLIERTGTCYAQVDPRFVTTLYFPRMVTSAVSSDERYFRASIVDDSVIVRPARDIDADALGNLSITAGEMKVSIMLGVAGHSSEVLPQIDFRALSEAEVFDARVAAEAERLHQDVKREYERRHRELEGEVTREATQLVGERLLQRHEPVRIDAIARNDDNVIVRVERGVWVGHELYLFFTVQNRSGTPYRVTHVGVFEESEHRAVADAGRAGQVEFDSAAPLVAGLLGTVRVDQFGRGVVHVRDARGAAGRRMTLRVSEERGERPVSVGGLSWR | not soluble |
| MVMSSEGGEDRWVFGYGSLMWRPGFPFIDRRTAVLHGRRRAFCIYSVHHRGTYERPGLVLGLAPGGSVRGMAYRVAAAEWEGVYAYLREREQPTETYFETWREVKVDGGDKAPALVFLSDMKHSQWAGDLTLEQQAALIAGAVGLSGPNIDYLRDLVMHLHEDGVRDHAMEKLLKMVEAREAALEHHHHHH | not soluble |
| MASQTNQTVVDTKKIETENPPKPQVPASSCRKRVKDDNATFFANLKDHMDEFIHASMDEHKTCFKNTMDKIFGSFSKAEAVAEKQIEAKEVVEIHSPLQTAVTK | soluble |
| GPGSMQRSTRIVMAPFKSVLRRHKHHPEGLPLYNDMSKQWLCREGERWWLLDARGEQLPRVAAVAAQYITGQHRPDFTPGMITGDHVVIVNIKDVVMVGDQWIRVPITWQTAYPGGKYRIRLTDMYERDPCMLMWWFLKDEVNRHFVRKLKTRIAPLEKAWLYEDSIHPHADKNPRPLCWTDPEVKGWKYRDPQFIRRWKPNEFMH | not soluble |
| MSFRLRIDDSVTADHVVCWGVTVALLKKSLFGSTPEERKRRVEEKISQAVVELGLEGLSDEFRVSMLSAWVRYYVFRVDAGEKTFVLNVLSPNSPVKSFRDILDPLRGLFEKFRENIAVPVAYTDEFMLQEWINGLPLSELRDGDVMRSDEKSRRIIEESIYLTARLLYRLWKEGFVYSPWEDYEAMYCDGKIVLLDVTRFEKKPSNESFLQHYYGAPFCPPDVLKDPKSPVNRLYFRGTSERDYFGVEREKYEELFLKGIRDECGSEQEFKILLGDCEAVERIKRV | not soluble |
| MGSDKIHHHHHHMSNFNFDFAENDFGPLAAKMRPTSLEQYFGQSHLIGEGKPLRKAIQAGHIYSMIFWGPPGTGKTTLAEIIAQRINAEVERISAVTSGIKEIREAIDRAKQNRLADRKTILFVDEVHRFNKSQQDAFLPHIEDGTVIFIGATTENPSFELNNALLSRARVYVLKSLTTAEIEQVLQQAVEDPKRGLGKERLILEENLLQVLAEYVNGDARLALNCLELMVDMADETENGKKIDRTLLKEVLGERQARFDKQGDRFYDLISALHKSVRGSAPDAALYWYARILTAGGDPLYVARRLLAIASEDVGNADPRAMQVALAAWDCFSRVGAYEGERAIAQAIIYLSVAPKSNAVYTAFNTAKQQAKDLPDYDVPPHLRNAPTNLMKELGYGTEYRYAHDEPNAYAAGENYFPPELKDTQYYFPTNRGMEIQIKEKLERLREQDKSAVKKRYK | not soluble |
| MRVFPVTLGPLQENAYLVETGEGPVLIDPGDEPEKLLALFQTTGLIPLAILLTHAHFDHVGAVAPLVEALDLPVYLHPLDLPLYEGADLAARAWGLAIPKPPLPVRPLEEGMRLFGFQVLHLPGHSPGHVAFYDPEGAQVFSGDLLFRGSVGRYDLPGADPKALFASLKRLLSLPPETRVHPGHGPGTTLGLEARTNPFLTGLEWEA | soluble |
| MGHHHHHHSHMDWTLAMAQESGVWSEAGQLALHSYLEGLHTLASCAPAPSLSAPRLKSCIQCVESQLLVVIMSVCMLVCQLRNVCVCVHAHACMYLFPVPSGSGCHFRLSALSPATSVPQPEREMRCSWTPHCIWAAGPELV | not soluble |
| MPPLPLIGMLLGTASTMIKSSSGAAAHASGASSAPSGDAAPTAPFAQTLKRNVQTQRQTNAGAGAGAPNAGNATNAATSGTANASTTSSASEPATTNAGNTKASGKPDDQDDDKNATQSASADAAAALAAAASLQAQLQARPDAQAAQAAAPQAGASDAAHPPTTLATNTAAAGDADTSALAGAQQPVGEALNAALSKLTGAGPAGAAATQRAQPAGRNDGAPTPLAANGPFDKMLAGAKAPAAPATLTDASGTNPAVSTAAQPAASGAIAALQDAADSARATLAASSAPAALQQAAPAALAANANAAAATAAPSLAPPVGTPDWTEALSQKVVFLSNAHQQSAELTLNPPDLGPLQVVLRVAENHAHALFVSQHAQVRDAVEAALPKLREAMEAGGLGLGSASVSDGGFASAQQQQTPQRQSSDGSAARRASGAPTADAALGEVSAVSSGGVTRRSVGMVDTFA | not soluble |
| SETQKTQAENPPKPATSSCRKKTKDDANFLEDVKDHIDDFINASMDDHKNCFNKTIKKMFGLSKAVADKQQSEAKGGVESYLPLQTTVSD | soluble |
| MAHHHHHHMGDDCETELVEVFGFISSGREDVRKMAVQGLAQQSKDNKELFALIASSAHGPRCIDVLLQFLHAGSVALLGDVLTVLINCAADGTCTEVLVTQKVVRRAMRLIDSVEASDHPQSLQRGLEEMTLMLLSNLTASHVSAVDDLLQVTDEDLRGFYLGKLLTYYTRFTVDDGCSVEVAVAGEQQQEDGGDDNKKLSEGDAVRSNSGGNKSEELNKTVPRDLQRWILQILLNVTRVADGQELLLEDDDWLMALSDCLSSLNPRHRLLAAQCFRNCSFQRERHPGILRSRCLRVCVERLSDGAEHIGEIEMLLAEITANLMQTEAGIGLLEELNAKKHLQASVTAGKVQADTCKFLNEHVLPLLDDIVDAYVMTSGDELD | not soluble |
| MSSGVKASPHRFNRFEIKYLITEQDVPALREQLATRMSTDPLSPPGGYRVESLYFDSADLRCYTEKIEGLKFRRKLRIRTYGDGVLTPESTVSVEIKQRVNKVTQKRRLDLPFIYALALGDSTGAAVGEQVDVEKLLEISPENQHALIHEMASFAKNYRLRPIATTKYHREAFVGADAEESSRVTIDHGVSGRDRDFLLGQDLEDRPTVAQGLAVVEIKCDERVPFWLTDMTAQLEMSVIRMSKYCETIEAFHNRPASAFGAVDPIFLEHHHHHH | not soluble |
| MGSDKIHHHHHHMKVLLYLEGKTVLEKSGIGRALQHQMEALDMAGIPYTTDLLGDYDVIHINTYGPRSWLLLHAAKRSGKKVIMHGHSTKEDFQNSFIGSNTLAPFVGKYLASMYQKADFVITPSEYSKKLIQSYGVTTPIIAVSNGIDLDKYKKDERKEAIFREHFKIEEGQPVVVCAGLYFRRKGIEDFVKVAEKMPHVRFIWLGSINKWLIPSYIRKIVEGDHPANVEFPGYFKGAVFQGAMSGADAFFFPSYEETEGIVVLEALASHQHVVLRDIPVYDGWVDENVAELGHTVDDFVDSIQKILDKQVDKREAGYQVAVSRSIDNVSHQLVDAYRQVLEM | not soluble |
